Key:
[1] = biological target: T1, Nucleolin (MBP fusion, lacking N-terminal acidic stretches domain) (Homo sapiens, UniProt P19338 P19338:284-710); experiment: filter; Bmax 21%; 60 mM KCl, 1 mM MgCl2; conditions: label: 32P; G4 motif, CD not determined
Description: (§1) The assay also was conducted in a filter-binding format. In such forms of the assay, 0.2 nM of ³²P-labeled quadruplexes were incubated in 50 uL of the binding buffer (12.5 mM Tris-HCl, pH 7.6, 60 mM KCl, 1 mM MgCl2, 0.1 mM EDTA, 5% glycerol, 0.1 mg/mL BSA) for 10 min at 85 C and then for 10 min on ice and mixed with another 50 uL of binding buffer containing increasing amounts of recombinant protein Nucleolin. The protein-quadruplex mixtures were incubated for 30 min at ambient temperature and filtered through mixed cellulose ester membrane filters (Millipore) with gentle suction. The filters were washed twice with […] of binding buffer, dried and OptiPhase ‘SuperMix’ scintillation cocktail (Perkin Elmer) was added to the wells. Radioactivity was assayed with MicroBeta scintillation counter (Perkin Elmer). Binding curves were constructed and apparent Kd's and Bmax's for the complexes were calculated using the GraphPad Prizm software program (GraphPad Software). […]

[2] = biological target: T1, Nucleolin (MBP fusion, lacking …); experiment: filter; Bmax 49%; 60 mM KCl, 1 mM MgCl2; conditions: label: 32P; G4 motif, CD not determined
Description: as §1

[3] = biological target: T1, Nucleolin (MBP fusion, lacking …); experiment: filter; Bmax 47%; 60 mM KCl, 1 mM MgCl2; conditions: label: 32P
Description: as §1

[4] = biological target: T1, Nucleolin (MBP fusion, lacking …); experiment: filter; 60 mM KCl, 1 mM MgCl2; conditions: label: 32P
Description: The assay also was conducted in a filter-binding format. In such forms of the assay, 0.2 nM of ³²P-labeled quadruplexes were incubated in 50 uL of the binding buffer (12.5 mM Tris-HCl, pH 7.6, 60 mM KCl, 1 mM MgCl2, 0.1 mM EDTA, 5% glycerol, 0.1 mg/mL BSA) for 10 min at 85 C and then for 10 min on ice and mixed with another 50 uL of binding buffer containing increasing amounts of recombinant protein Nucleolin. The protein-quadruplex mixtures were incubated for 30 min at ambient temperature and filtered through mixed cellulose ester membrane filters (Millipore) with gentle suction. The filters were washed twice with […] of binding buffer, dried and OptiPhase ‘SuperMix’ scintillation cocktail (Perkin Elmer) was added to the wells. Radioactivity was assayed with MicroBeta scintillation counter (Perkin Elmer). Binding curves were constructed and apparent Kd's and Bmax's for the complexes were calculated using the GraphPad Prizm software program (GraphPad Software). In the following table, the nucleic acid ligand is designated in the first column using the nomenclature described herein; the second column provides the nucleotide sequence of the nucleic acid ligand; the third column is the conformation of the ligand as determined by circular dichroism (M is mixed, P is parallel, A is antiparallel, C is complex, SS is single-stranded and ND is not determined); the fourth column is the dissociation constant determined by the filter binding assay of nucleolin protein and the nucleic acid ligand; the fifth column is a Bmax constant determined by the filter binding assay, which is the percent of active nucleic acid ligand in each assay; and the sixth column presents the concentration of Compound A-1 required to dissociate half of the complexed nucleic acid ligand and nucleolin protein, as determined by the EMSA assay described above.

[5] = biological target: T1, Nucleolin (MBP fusion, lacking …); experiment: filter; Bmax 35%; 60 mM KCl, 1 mM MgCl2; conditions: label: 32P; G4 motif, CD not determined
Description: as §1

[6] = biological target: T1, Nucleolin (MBP fusion, lacking …); experiment: filter; Bmax 16%; 60 mM KCl, 1 mM MgCl2; conditions: label: 32P; G4 motif, CD not determined
Description: as §1

[7] = biological target: T1, Nucleolin (MBP fusion, lacking …); experiment: filter; Bmax 55%; 60 mM KCl, 1 mM MgCl2; conditions: label: 32P; G4 motif, CD not determined
Description: as §1

[8] = biological target: T1, Nucleolin (MBP fusion, lacking …); experiment: filter; apparent Kd; Bmax 41%; 12.5 mM Tris-HCl pH 7.6, 60 mM KCl, 1 mM MgCl2, ambient temperature; conditions: label: 32P; G4 mixed
Description: as §1

[9] = biological target: T1, Nucleolin (MBP fusion, lacking …); experiment: filter; Bmax 100%; sequence taken from Example 6 table; conditions: label: 32P; G4 complex
Description: as §1

[10] = biological target: T1, Nucleolin (MBP fusion, lacking …); experiment: filter; Bmax 82%; 60 mM KCl, 1 mM MgCl2; conditions: label: 32P; G4 motif, CD not determined
Description: as §1

[11] = biological target: T1, Nucleolin (MBP fusion, lacking …); experiment: filter; Bmax 65%; 60 mM KCl, 1 mM MgCl2; conditions: label: 32P; G4 motif, CD not determined
Description: as §1

[12] = biological target: T1, Nucleolin (MBP fusion, lacking …); experiment: filter; Bmax 31%; 60 mM KCl, 1 mM MgCl2; conditions: label: 32P; G4 motif, CD not determined
Description: as §1

[13] = biological target: T1, Nucleolin (MBP fusion, lacking …); experiment: filter; Bmax 53%; 60 mM KCl, 1 mM MgCl2; conditions: label: 32P; G4 mixed
Description: as §1

[14] = biological target: T1, Nucleolin (MBP fusion, lacking …); experiment: filter; Bmax 52%; 60 mM KCl, 1 mM MgCl2; conditions: label: 32P; G4 motif, CD not determined
Description: as §1

[15] = biological target: T1, Nucleolin (MBP fusion, lacking …); experiment: filter; Bmax 20%; 60 mM KCl, 1 mM MgCl2; conditions: label: 32P; G4 motif, CD not determined
Description: as §1

[16] = biological target: T1, Nucleolin (MBP fusion, lacking …); experiment: filter; Bmax 84%; 60 mM KCl, 1 mM MgCl2; conditions: label: 32P; G4 mixed
Description: as §1

[17] = biological target: T1, Nucleolin (MBP fusion, lacking …); experiment: filter; Bmax 37%; 60 mM KCl, 1 mM MgCl2; conditions: label: 32P; G4 parallel
Description: as §1

[18] = biological target: T1, Nucleolin (MBP fusion, lacking …); experiment: filter; Bmax 50%; 60 mM KCl, 1 mM MgCl2; conditions: label: 32P
Description: as §1

[19] = biological target: T1, Nucleolin (MBP fusion, lacking …); experiment: filter; Bmax 66%; 60 mM KCl, 1 mM MgCl2; conditions: label: 32P; G4 mixed
Description: as §1

[20] = biological target: T1, Nucleolin (MBP fusion, lacking …); experiment: filter; Bmax 32%; 60 mM KCl, 1 mM MgCl2; conditions: label: 32P
Description: as §1

[21] = biological target: T1, Nucleolin (MBP fusion, lacking …); experiment: filter; Bmax 33%; 60 mM KCl, 1 mM MgCl2; conditions: label: 32P; G4 parallel
Description: as §1

[22] = biological target: T1, Nucleolin (MBP fusion, lacking …); experiment: filter; Bmax 43%; 60 mM KCl, 1 mM MgCl2; conditions: label: 32P; G4 motif, CD not determined
Description: as §1

[23] = biological target: T1, Nucleolin (MBP fusion, lacking …); experiment: filter; Bmax 26%; 60 mM KCl, 1 mM MgCl2; conditions: label: 32P; G4 mixed
Description: as §1

T1 sequence (P19338 284-710, one chain of several): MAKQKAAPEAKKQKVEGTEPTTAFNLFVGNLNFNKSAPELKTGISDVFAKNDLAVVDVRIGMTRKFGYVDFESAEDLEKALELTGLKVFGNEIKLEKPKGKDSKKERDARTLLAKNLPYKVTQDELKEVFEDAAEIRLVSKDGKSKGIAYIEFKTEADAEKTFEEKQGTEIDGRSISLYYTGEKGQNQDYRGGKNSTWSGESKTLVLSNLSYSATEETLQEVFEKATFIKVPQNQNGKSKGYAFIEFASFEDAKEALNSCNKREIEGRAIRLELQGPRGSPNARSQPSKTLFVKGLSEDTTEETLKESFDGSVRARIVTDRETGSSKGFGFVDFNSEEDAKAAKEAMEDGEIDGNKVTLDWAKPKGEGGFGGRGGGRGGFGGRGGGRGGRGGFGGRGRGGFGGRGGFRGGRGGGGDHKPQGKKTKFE

AGGGACCGGTGGGGCCGGGGCGGGG (structured_DNA) [3468T]
Kd [1]: 2.4 nM

AGGGAGGACGCGGGGCCGGGGGGCGGAGACGGG (structured_DNA) [8716T]
Kd [2]: 3.1 nM

AGGGGACACCGGGGGGGCGCCGGGGG (structured_DNA) [11888T]
Kd ([3]; G4 motif, CD not determined): 0.2 nM

GGGCCGGGACGGGGTCCGGGG (structured_DNA) [13173NT]
Kd ([4]; G4 mixed): > 30 nM

B1: 8440T (structured_DNA)
DNA: AGGGGCGGCGGGGGAAGGGAGGGCGGGTGGAGGGGTCGGGAGGAACGGGGGGCGGG
Kd [5]: 0.3 nM

AGGGGCGGCGGGGAGGAGGAGGGGCGCGGGG (structured_DNA) [7370T]
Kd [6]: 1.1 nM

B2: 2160T (structured_DNA)
DNA: AGGGCGGCGGGCGGGGAAGAGGGCACAGACGGGCGAGGGCCGGGGACCGCGAGGGCAAGGGCACCCGGG
Kd [7]: 0.7 nM

GGGTGGACGGGGGGGCCTGGTGGGG (structured_DNA) [1196NT]
Kd [8]: 4.2 nM

GGAGGAGGAGGA (structured_DNA) [GGA4]
Kd ([4]; G4 parallel): > 30 nM

B3: 8762NT (structured_DNA)
DNA: CGGAGGGCGCGCGGGTCGGGGCGGCGGCGGCGGCGGCGGTGGCGGCGGCGGCGGGGGCGGCGGG
Kd [9]: 0.3 nM

B4: 10885T (structured_DNA)
DNA: AGGGTGGGGCGGGGGAGGGCCGCGAGGGGGGTGCCCCGGGCGTGGGGGGGG
Kd [10]: 0.2 nM

AGGGACGGGGACCGGCGGGCCACGGGG (structured_DNA) [13236T]
Kd ([4]; G4 motif, CD not determined): > 30 nM

AGGGGAGGGGGGAGGACGGGGAGCGGGGG (structured_DNA) [10985T]
Kd [5]: 0.2 nM

AGGGGCTCCGGGGGCGGGGAGCGGGGCGTGGGCGGGAGGAGGGG (structured_DNA) [10137T]
Kd [11]: 0.4 nM

AGGGGGTGGGCGCCGGGAGGGGGG (structured_DNA) [8904T]
Kd [12]: 0.4 nM

GGGAGGGGCACGGGCCGGGGGCGGGACGGG (structured_DNA) [7733T]
Kd [13]: 0.8 nM

GGGGGCGGGAACCCCCGGGCGCCTGTGGG (structured_DNA) [6374NT]
Kd ([3]; G4 mixed): 5.5 nM

AGGGCGCGGGGTGGGGAGGG (structured_DNA) [10951T]
Kd [14]: 0.2 nM

AGGGCGGACGGGAGGGAGCGAGCGGGCGCGGGGG (structured_DNA) [3500T]
Kd [15]: 1.1 nM

AGGGAGGGAGACGGGGGGG (structured_DNA) [5701NT]
Kd [16]: 3.2 nM

GGGGTGGGGGGGAGGG (structured_DNA) [13079NT]
Kd [17]: 2.6 nM

AGGGTTAGGGTTAGGGTTAGGG (structured_DNA) [hTel]
Kd ([4]; G4 antiparallel): > 30 nM

GGGCCCGCGGGGGGAGGGGGAAGGGGCGGG (structured_DNA) [6914T]
Kd ([18]; G4 mixed): 0.8 nM

GGGTCGGGGGGTGGGGCCCGGGCCGGGG (structured_DNA) [2957NT]
Kd [19]: 2.7 nM

AGGGACGCCTGGGGAAGGGAGGGGG (structured_DNA) [1310T]
Kd ([18]; G4 motif, CD not determined): 4.4 nM

GGGGCGCGGCGGGGGGAGAAGGGTCGGGGCGGCAGGGG (structured_DNA) [11028NT]
Kd ([20]; G4 mixed): 2.7 nM

TGGGGAGGGTGGGGAGGGTGGGGAATT (structured_DNA) [Myc27]
Kd [21]: 4.4 nM

AGGGGCGGGGGCGCGGGGAGGAGGGGTGGG (structured_DNA) [9024T]
Kd [22]: 0.3 nM

AGGGCGGGCGGCGGGGCGGG (structured_DNA) [7499T]
Kd [6]: 1.1 nM

GGGTCGGGGGCGGTGGTGGGCCCGCGGGGG (structured_DNA) [6183NT]
Kd [23]: 2.2 nM

AGGGGGGAACGGGGGGCGGACGGGGCCGGGGGGGTAGGGCGGGGGG (structured_DNA) [11345T]
Kd ([20]; G4 motif, CD not determined): 0.3 nM
